A word on the kcat: it is the maximal rate divided by the concentration of active sites. What is called Km is the concentration of substrate that gives half-maximal velocity.

Compound in data set [1]: CC(C)(CO)[C@@H](O)C(=O)NCCC(=O)O
The data set can be described thus: (§1) Substrate activity at Pseudomonas aeruginosa PanK3 expressed in Escherichia coli BL21(DE3) cells assessed as Kcat in presence of ATP/NADH by pyruvate kinase/lactate dehydrogenase enzyme coupled assay.

Compound in data set [2]: O=C(O)CCNC(=O)[C@H](O)CCO
The description is as §1.

Compound in data set [3]: CC(C)(CO)[C@@H](O)C(=O)NCCCC(=O)O
Described as §1.

Compound in data set [4]: CC(C)(CO)[C@@H](O)C(=O)NCCC(=O)O
The data set can be described thus: (§2) Substrate activity at Pseudomonas aeruginosa PanK3 expressed in Escherichia coli BL21(DE3) cells assessed as Km in presence of ATP/NADH by pyruvate kinase/lactate dehydrogenase enzyme coupled assay.

Compound in data set [5]: O=C(O)CCNC(=O)[C@H](O)CCO
The description is as §2.

Compound in data set [6]: CC(C)(CO)[C@@H](O)C(=O)NCCCC(=O)O
The data set is described as §2.

Compound in data set [7]: CCCc1cn(CCCNC(=O)[C@H](O)C(C)(C)CO)nn1
The experiment in a line: (§3) Substrate activity at N-terminal His6-tagged Staphylococcus aureus PanK2 expressed in Escherichia coli BL21(DE3) cells assessed as Kcat in presence of ATP/NADH by pyruvate kinase/lactate dehydrogenase enzyme coupled assay.

Compound in data set [8]: CCCCCc1cn(CCNC(=O)[C@H](O)C(C)(C)CO)nn1
The description is as §3.

Compound in data set [9]: CC(C)(CO)[C@@H](O)C(=O)NCCC(=O)O
Described as §3.

Compound in data set [10]: CC(C)(CO)[C@@H](O)C(=O)NCc1cn(CCc2ccccc2)nn1
The description is as §3.

Compound in data set [11]: CCCCn1cc(CCNC(=O)[C@H](O)C(C)(C)CO)nn1
The data set is described as §3.

Compound in data set [12]: CCCCCn1cc(CCNC(=O)[C@H](O)C(C)(C)CO)nn1
The data set is described as §3.

Compound in data set [13]: COC(=O)CNC(=O)[C@H](O)C(C)(C)CO
The data set is described as §3.

Compound in data set [14]: CCCCCn1cc(CNC(=O)[C@H](O)C(C)(C)CO)nn1
The description is as §3.

Compound in data set [15]: CCCCCNC(=O)CCNC(=O)[C@H](O)C(C)(C)CO
The data set is described as §3.

Compound in data set [16]: CC(C)(CO)[C@@H](O)C(=O)NCCCC(=O)O
The description is as §3.

Compound in data set [17]: CCCc1cn(CCCNC(=O)[C@H](O)C(C)(C)CO)nn1
The data set can be described thus: (§4) Substrate activity at N-terminal His6-tagged Staphylococcus aureus PanK2 expressed in Escherichia coli BL21(DE3) cells assessed as Km in presence of ATP/NADH by pyruvate kinase/lactate dehydrogenase enzyme coupled assay.

Compound in data set [18]: CCCCCc1cn(CCNC(=O)[C@H](O)C(C)(C)CO)nn1
Described as §4.

Compound in data set [19]: CC(C)(CO)[C@@H](O)C(=O)NCCC(=O)O
The description is as §4.

Compound in data set [20]: CC(C)(CO)[C@@H](O)C(=O)NCc1cn(CCc2ccccc2)nn1
The description is as §4.

Compound in data set [21]: CCCCn1cc(CCNC(=O)[C@H](O)C(C)(C)CO)nn1
Described as §4.

Compound in data set [22]: CCCCCn1cc(CCNC(=O)[C@H](O)C(C)(C)CO)nn1
Described as §4.

Compound in data set [23]: COC(=O)CNC(=O)[C@H](O)C(C)(C)CO
Described as §4.

Compound in data set [24]: CCCCCn1cc(CNC(=O)[C@H](O)C(C)(C)CO)nn1
The data set is described as §4.

Compound in data set [25]: CCCCCNC(=O)CCNC(=O)[C@H](O)C(C)(C)CO
The data set is described as §4.

Compound in data set [26]: CC(C)(CO)[C@@H](O)C(=O)NCCCC(=O)O
The data set is described as §4.

B1: Type III pantothenate kinase (Pseudomonas aeruginosa (strain ATCC 15692 / DSM 22644 / CIP 104116 /JCM 14847 / LMG 12228 / 1C / PRS 101 / PAO1)), Q9HWC1 (protein)
chain: MILELDCGNSLIKWRVIEGAARSVAGGLAESDDALVEQLTSQQALPVRACRLVSVRSEQETSQLVARLEQLFPVSALVASSGKQLAGVRNGYLDYQRLGLDRWLALVAAHHLAKKACLVIDLGTAVTSDLVAADGVHLGGYICPGMTLMRSQLRTHTRRIRYDDAEARRALASLQPGQATAEAVERGCLLMLRGFVREQYAMACELLGPDCEIFLTGGDAELVRDELAGARIMPDLVFVGLALACPIE
Turning to B1, the turnover number (kcat) in [1] amounted to 0.39 s⁻¹; in [2], 0.32 s⁻¹; in [3] it was 0.98 s⁻¹. Moreover, the Km in data set [4] was determined as 20 µM; in data set [5], 64 µM; in data set [6], 683 µM.

B2: Type II pantothenate kinase (Staphylococcus aureus (strain MSSA476)), Q6G7I0 (protein)
chain: MKVGIDAGGTLIKIVQEQDNQRTFKTELTKNIDQVVEWLNQQQIEKLCLTGGNAGVIAENINIPAQIFVEFDAASQGLGILLKEQGHDLADYIFANVGTGTSLHYFDGQSQRRVGGIGTGGGMIQGLGYLLSQITDYKQLTDMAQHGDRNTIDLKVRHIYKDTEPPIPGDLTAANFGHVLHHLDADFTPSNKLAAVIGVVGEVVTTMAITVAREFKTENIVYIGSSFHNNALLRKVVEDYTVLRGCKPYYVENGAFSGAIGALYLEK
Consider B2, for which the catalytic constant (kcat) in data set [7] was 7.6 s⁻¹; in [8], 0.82 s⁻¹; in data set [9], 2.16 s⁻¹; in [10], 4.7 s⁻¹; in data set [11] it was 0.82 s⁻¹; in data set [12] it was 0.73 s⁻¹. The kcat in [13] is 4 s⁻¹; in data set [14], 3.4 s⁻¹; in [15] it was 0.44 s⁻¹; in [16] it was 3.4 s⁻¹. The Km in [17] came out at 369 µM; in data set [18], 8.5 µM; in data set [19] it was 19 µM; in data set [20], 126 µM; in data set [21] it was 7.1 µM; in data set [22] it was 6.8 µM. In addition, the Km is 36 µM in [23], 64 µM in [24], below 1.5 µM in data set [25] and 60 µM in [26].

The values above are taken from ChEMBL document CHEMBL4261651, “Probing the ligand preferences of the three types of bacterial pantothenate kinase” (Bioorg Med Chem, 2018).
